# According to article PMC3045617:
# Experiments:
# Assay in all cases: EMSA
# [1] = tested on: GlrR-His10 (E. coli) (Escherichia coli)
# [2] = tested on: GlrR-His10 (Y. pseudotuberculosis) (Yersinia pseudotuberculosis)
# [3] = target: T1, GlrR-His10 (E. coli) (Escherichia coli) (UniProt P0AFU4)
# T1 sequence: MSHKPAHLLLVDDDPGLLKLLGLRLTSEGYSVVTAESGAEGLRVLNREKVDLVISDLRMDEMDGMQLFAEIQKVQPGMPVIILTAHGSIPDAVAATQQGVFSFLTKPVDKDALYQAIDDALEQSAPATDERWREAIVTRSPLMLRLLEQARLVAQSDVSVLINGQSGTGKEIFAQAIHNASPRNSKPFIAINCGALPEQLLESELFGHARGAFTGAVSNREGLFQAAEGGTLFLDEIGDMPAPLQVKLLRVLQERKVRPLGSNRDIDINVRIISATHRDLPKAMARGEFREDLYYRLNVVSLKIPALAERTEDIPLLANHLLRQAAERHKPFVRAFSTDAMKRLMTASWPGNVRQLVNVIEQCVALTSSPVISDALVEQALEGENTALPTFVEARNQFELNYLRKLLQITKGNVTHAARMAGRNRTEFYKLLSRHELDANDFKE
# [4] = tested on: GlrR-His10 (Y. pseudotuberculosis) (Yersinia pseudotuberculosis), ORF:f09f451a
# [5] = target: IHF (UniProt P0A6X7+P0A6Y1)
# Sequence of UniProt P0A6X7 (P0A6X7 2-99, chain 1 of 2): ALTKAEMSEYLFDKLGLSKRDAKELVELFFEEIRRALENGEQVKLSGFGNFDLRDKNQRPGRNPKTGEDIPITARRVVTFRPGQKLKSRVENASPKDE
# Sequence of UniProt P0A6X7 (P0A6Y1 whole entry, chain 2 of 2): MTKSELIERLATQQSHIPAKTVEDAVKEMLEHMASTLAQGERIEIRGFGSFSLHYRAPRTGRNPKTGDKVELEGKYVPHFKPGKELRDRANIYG
Substance,Kd [1] [nM],Kd [3] [nM],other results
Y. pseudotuberculosis glmZ promoter (-303 to +22),370,,binding signal (fold higher protein than E. coli GlrR) [2]: 4
ATTAATGCAGCTGGCACGACAGGTTTCCCGACTGGAAAGCGGGCAGTGAGCGCAACGCAATTAATGTGAGTTAGCTCACTCATTAGGCACCCCAGGCTTTACACTTTATGCTTCCGGCTCGTATGTTGTGTGGAATTGTGAGCGGATAACAATTTCACACAGGAAACAGCTATGACCATGATTACGGATTCACTGGCCGT (double strand) [lacZ promoter 200 bp control],,,binding [3]: no binding
GCACGCGTCGACGTGTTGCCATTATGATTTGTTGGCGATATCCCAGGCTTCATTTGTCGCTATTCGGTGACGAGTAATCTATTGATTTATAATCACTTTGTAAAAAGCATCCTGTTCTGTCTCCACCGGGCGACACGCTAAAACCTCGCCAGCGGCGGGGGGATGACAATCGCGTGAATTCTCTACGTTTTTTTAATGCCTGCGCCTGTTTTTTAGCGGTGCAAAGATGGCACGTTATGTGCAATAATGTACGGGTAGATGCTCATTCCATCTCTTATCTAGAGACG (double strand) [S. typhimurium glmZ promoter (-242 to +22)],,370,
CGTCTCTAGACATAAGAAGGTGAATGAGCCACTGGTTACCATTATGCAGTAATTGTGCCAACATTCAAAAGAATTTGTTAACATAATGATAGATATGAAAAATATCGTTATTCATGCTAAAAATGGCTCTGTCTGTTTTTTGCCCTTTCTGTCGCCAATCAGCAACACCTGCAACACCTAAAAATAAAACAATTTAAAATCAAATAGTTAAATGTCTCTTTTTGGCGACAACCTATCCCCCACTCATGTCGGGATTTCCCGACACTTTAATCTTGGTCGACGCGTGC (double strand) [S. typhimurium glmY promoter (-242 to +22)],,230,
S. typhimurium glmY promoter (-242 to +22),230,,
E. coli glmY promoter (-238 to +22),360,,
GCTCTAGAATAAGTCGGTGAATGAGCCACTGGTTACTATTATGCAGTAACTGTGCCAATAAAGAAAATAGTTTGGTAACGTACTGATTATACGTTGCTTTGAGGGGTTTATGTCTCCTCCGCTGTTTGAATGTAAATCAGCCACTGTGTCGCTAAAAAGAGACAACTTAAGATAAACTTATTAGATAATATTAAAATCAATGAGTTAAGTGTCGCCAGAAAGCGACACGGCAAACCACCCATTGTCGTGATTTACAGACACAAAAAAGGTCGACGCGTGC (double strand) [E. coli glmY promoter (-238 to +22)],,360,binding [4]: binds; binding [3]: binds; binding [5]: binds
S. typhimurium glmZ promoter (-242 to +22),370,,
Y. pseudotuberculosis glmY promoter (-257 to +22),290,,
